Test results as given in patent publication US20210319279A1.

Biological target: SBE FLAG9 (three 3xFLAG domains joined by rigid linkers) displayed on the yeast cell wall as a fusion to truncated FLO11 (S. cerevisiae) (UniProt P08640)
Experiment: cell-based or functional assay

Sequence of UniProt P08640 (P08640 other isoform, or with tags, fused parts or gaps limits assumed): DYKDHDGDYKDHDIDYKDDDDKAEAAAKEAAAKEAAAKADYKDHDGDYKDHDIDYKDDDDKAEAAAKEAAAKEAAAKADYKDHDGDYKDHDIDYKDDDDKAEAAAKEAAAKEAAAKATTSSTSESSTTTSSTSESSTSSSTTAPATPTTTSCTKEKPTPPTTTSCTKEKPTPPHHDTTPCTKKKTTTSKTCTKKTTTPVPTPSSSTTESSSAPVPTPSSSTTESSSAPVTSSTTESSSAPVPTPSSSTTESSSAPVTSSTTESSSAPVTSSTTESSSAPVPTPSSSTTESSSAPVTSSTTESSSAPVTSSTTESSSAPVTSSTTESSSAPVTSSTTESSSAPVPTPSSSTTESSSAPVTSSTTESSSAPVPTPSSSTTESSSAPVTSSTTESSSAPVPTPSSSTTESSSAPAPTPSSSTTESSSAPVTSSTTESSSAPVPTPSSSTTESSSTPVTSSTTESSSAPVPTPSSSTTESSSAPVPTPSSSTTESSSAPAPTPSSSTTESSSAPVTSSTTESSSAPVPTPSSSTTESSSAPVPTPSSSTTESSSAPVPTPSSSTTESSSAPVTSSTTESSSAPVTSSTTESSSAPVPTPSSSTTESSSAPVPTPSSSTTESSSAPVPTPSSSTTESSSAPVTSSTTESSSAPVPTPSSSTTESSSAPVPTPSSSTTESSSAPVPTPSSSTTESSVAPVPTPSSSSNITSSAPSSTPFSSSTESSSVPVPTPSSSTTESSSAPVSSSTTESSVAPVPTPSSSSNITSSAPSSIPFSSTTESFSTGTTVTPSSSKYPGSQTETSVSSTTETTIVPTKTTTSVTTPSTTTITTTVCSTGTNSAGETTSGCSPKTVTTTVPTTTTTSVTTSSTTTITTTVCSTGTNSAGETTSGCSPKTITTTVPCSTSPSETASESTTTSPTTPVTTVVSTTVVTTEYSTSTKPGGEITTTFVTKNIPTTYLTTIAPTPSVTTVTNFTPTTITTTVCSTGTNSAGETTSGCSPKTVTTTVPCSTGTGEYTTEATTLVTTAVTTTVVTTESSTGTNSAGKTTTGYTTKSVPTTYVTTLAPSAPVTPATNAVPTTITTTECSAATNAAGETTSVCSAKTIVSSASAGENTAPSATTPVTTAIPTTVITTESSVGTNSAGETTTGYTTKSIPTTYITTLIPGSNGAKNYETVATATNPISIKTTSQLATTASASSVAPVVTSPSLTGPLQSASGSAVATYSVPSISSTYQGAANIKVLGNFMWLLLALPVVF

beta-lactamase reporter (nitrocefin-BLA analysis), fold-change against the negative control without beads; PIC assay with sX406, sX216 and regulatory sX437: 2 fold | beta-lactamase reporter, fold-change against the negative control; OR operation, Experiment A (BaF beads only): 3 to 4 fold | nitrocefin hydrolysis readout (image intensity), fold-increase against negative controls at 6 hrs; PIC assay with immobilization, strains sX384 and sX387, BaF beads: 6 to 10 fold
Substance: anti-FLAG M2 antibody (A2220 Sigma-Aldrich), covalently linked to agarose beads
